Experimental data: patent US9340582B2, “Bioconjugates of synthetic apelin polypeptides” (NOVARTIS AG, priority 2013, dated 2016)
Bridge positions count the residues as written; N and C are the ends. Square brackets hold non-standard residues; d marks the D form. * marks the point of attachment. Propanoyl(3-maleimido) = O=C1C=CC(=O)N1CCC(=O)*; Nle = CCCC[C@H](N)C(=O)O; AEEA = NCCOCCOCC(=O)O

Tests used:
hAPJ = target: T1, hAPJ (Homo sapiens, UniProt P35414); experiment: hAPJ Calcium Flux Assay; assay type: cell-based; settings: Chem-5 APJ stable cells, FLIPR calcium flux; read-out: hAPJ Ca^2+ Flux EC50
T1 sequence (P35414 1-380): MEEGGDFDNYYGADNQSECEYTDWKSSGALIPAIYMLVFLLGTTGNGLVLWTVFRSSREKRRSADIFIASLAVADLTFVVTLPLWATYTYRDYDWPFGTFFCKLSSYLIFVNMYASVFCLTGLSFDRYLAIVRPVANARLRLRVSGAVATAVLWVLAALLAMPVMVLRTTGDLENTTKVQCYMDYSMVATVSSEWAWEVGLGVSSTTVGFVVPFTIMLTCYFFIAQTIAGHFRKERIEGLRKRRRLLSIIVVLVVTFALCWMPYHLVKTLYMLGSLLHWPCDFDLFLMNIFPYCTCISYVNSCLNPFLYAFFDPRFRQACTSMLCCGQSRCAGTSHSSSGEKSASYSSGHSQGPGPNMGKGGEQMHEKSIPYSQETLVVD
Procedure: Chem-5 APJ stable cells (Millipore #HTS068C) were plated in 384-well format with 10,000 cells/well in 25 ul growth media, then grown 24 hours in a 37° C. tissue culture incubator. One hour before the assay, 25 ul/well FLIPR Calcium 4 dye (Molecular Devices R8142) with 2.5 mM probenecid was added, and cells were incubated one hour in a 37° C. tissue culture incubator. Bioconjugates were solubilized in HBSS, HEPES & 0.1% BSA buffer, and serially-diluted 10-fold, from 50 uM to 5 pM, in triplicate. FLIPR Tetra was used to add bioconjugates to the cells with dye (1:5, for final bioconjugate concentrations ranging from 10 uM to 1 pM). FLIPR dye inside the cells emitted fluorescence after binding to calcium, while fluorescence from outside the cells was masked. […] Readings were done for 3 minutes total, beginning 10 seconds before the bioconjugate addition. Maximum-minimum values were calculated and plotted for each bioconjugate concentration, and GraphPad prism software was used to calculate EC50 values at the curve inflection points, for calcium flux stimulation by bioconjugates.

[1] = Surrogate activity-based plasma stability assay; settings: for Surrogate activity-based Plasma stability t½: Table 2
[2] = Plasma Stability Assay (LC-MS); assay type: in vitro ADME; settings: Table 3, rat plasma, 37° C.
Procedure: • Materials: • Working solution: 1 mg/mL test article is prepared in Milli-Q water • Extraction solution: Methanol:Acetonitrile:Water (1:1:1) with 0.1% Formic Acid and 400 ng/mL Glyburide. • Plasma: Male Sprague-Dawley rat plasma (with sodium heparin), purchased from Bioreclamation LLC (Liverpool, N.Y.). • Whole blood: Male Sprague Dawley whole blood (with sodium heparin), purchased from Bioreclamation LLC (Liverpool, N.Y.) • Lung homogenate: Male rat Sprague Dawley lung was purchased from Bioreclamation LLC (Liverpool, N.Y.). The lung was homogenized using polytron homogenizer after addition of 5× volume of 1×PBS. The homogenate was centrifuged at 9000 rpm for 10 min at 4° C. The supernatant was centrifuged again at 3000 rpm for 30 min to make a clear supernatant. Protein concentration was determined using a commercial kit (Pierce, Thermo Scientific). Sample Preparation Procedure: (peptides)
Test article was prepared in one of the following biological matrices: heparinized rat plasma, heparinized rat whole blood or lung homogenate. The plasma and whole blood sample was prepared at 5000 ng/mL by adding 5 uL of 1 mg/mL Working solution to 995 uL of rat plasma or whole blood. […]

| Substance | EC50 (hAPJ) | Surrogate activity-based Plasma stability t½ [1] | Plasma stability t½ [2] | Surrogate Activity based Plasma stability t½ ([1]; Table 3) |
| --- | --- | --- | --- | --- |
| Albumin-MPA-NHCH2CH2CH2−OCH2CH2OCH2CH2O-CH2CH2CH2NH-C(O)CH2CH2C═O-A-R-P-R-L-S-H-K-G-P-Nle-P-F-OH (ARPRLSHKGPLPF; albumin-MPA linker conjugate; Nle residue) [Example 3] | 52 nM | 0.405 h |  |  |
| Albumin-MPA-O2Oc-O2Oc-O2Oc-O2Oc-Q-R-P-R-L-C*-H-F-G-P-Nle-C*-f-OH ({albumin-Propanoyl(3-maleimido)}-[AEEA][AEEA][AEEA][AEEA]QRPRLCHFGP[Nle]C[dF]-OH; disulfide 10-16; also: albumin conjugate) [Example 1] | 47.2 nM |  |  |  |
| Albumin-MPA-O2Oc-O2Oc-O2Oc-O2Oc-Q-R-P-R-L-C*-H-F-G-P-Nle-C*-f-OH [Example 1] |  | >16.67 h |  |  |
| Albumin-TPA-O2Oc-O2Oc-O2Oc-O2Oc-Q-R-P-R-L-C*-H-F-G-P-Nle-C*-f-OH [Example 2] | 92.4 nM | >16.67 h | ~24 h | >16.67 h |
| Example 4: Fc-Apelin fusion SEQ ID NO: 98; linker GGGGSGGGGS, polypeptide QRPRLSHKGPMPF |  | 3.53 h |  |  |
| Example 5: Fc-Apelin fusion SEQ ID NO: 99; linker GGGGSGGGGSGGGGS, polypeptide QRPRLSHKGPMPF |  | 5.57 h |  |  |
